Reference: PMC11704248, “Alternative splicing in the DBD linker region of p63 modulates binding to DNA and iASPP in vitro” (Cell Death & Disease, 2025)
Values joined by “and” are separate entries in the source; they are usually repeats but may differ in a detail not shown here. Identical values can stand only once. Each block holds one molecule with its values, some of them ahead of it.

How the values were obtained:
[1] = target: iASPP CTD with N813 and Y814 mutated (UniProt Q8WUF5); assay: not stated; affinities of peptides for iASPP CTD shown in Supplementary Fig. S5B, C, E; the text does not name the method
iASPP SH3 (Homo sapiens) = iASPP SH3 (Homo sapiens) (UniProt Q8WUF5); details: cited from earlier work
[2] = target: iASPP C-terminal domain (CTD) (UniProt Q8WUF5); assay: ITC; peptide titrated to the CTD or SH3 domain; VP-ITC; 25 mM HEPES pH 7.5, 150 mM NaCl, 500 µM TCEP; single-site binding model (AB hetero association)
p63 DBD-TD WT = assay: ELISA; details: ELISA: DPBS, 0.1% Tween-20, 10% Superblock, RT, 1 h; DNA pull-down: 50 mM Tris pH 8.0, 150 mM NaCl, 0.1% Tween-20, 4 C, 3 h
ASPP2 CTD = target: T1, ASPP2 CTD (UniProt Q13625 925-1128); assay: ITC
T1 chain: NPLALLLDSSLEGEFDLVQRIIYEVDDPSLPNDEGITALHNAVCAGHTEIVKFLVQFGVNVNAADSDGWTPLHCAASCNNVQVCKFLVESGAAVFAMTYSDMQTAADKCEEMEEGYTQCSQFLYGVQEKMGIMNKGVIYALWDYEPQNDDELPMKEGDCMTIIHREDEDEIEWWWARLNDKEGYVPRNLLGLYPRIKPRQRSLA

iASPP CTD [3] = target: iASPP CTD (UniProt Q8WUF5); assay: ITC; peptide or DBD titrated to ASPP CTD; VP-ITC; 25 mM HEPES pH 7.5, 150 mM NaCl, 500 µM TCEP; AB hetero association (single-site) model
iASPP CTD [4] = target: iASPP CTD (UniProt Q8WUF5); assay: NMR titration; unlabelled p63 linker peptide (up to 500 µM) with 100 µM 15N-iASPP CTD; 288 K; 25 mM HEPES pH 7.0, 50 mM NaCl, 5 mM DTT; KD from CSPs of selected residues of the SH3 domain, one-site model
[5] = target: T2, iASPP C-terminal domain (CTD) (UniProt Q8WUF5 625-828); assay: ITC; peptide titrated to the CTD or SH3 domain; VP-ITC; 25 mM HEPES pH 7.5, 150 mM NaCl, 500 µM TCEP; single-site binding model (AB hetero association); details: both partners purified
T2 construct: iASPP C-terminal domain (four ankyrin repeats and SH3 domain); The limits 625-828 are printed for the CTD in the crystallisation fusion; no separate limits are printed for the CTD used in ITC and NMR; For NMR the same construct was 15N-labelled (M9 medium); also called iASPP CTD; source: E. coli BL21(DE3) Rosetta, purified (IMAC, TEV cleavage, reverse IMAC, ion exchange, SEC); not shown: His10, …
T2 sequence (looked up): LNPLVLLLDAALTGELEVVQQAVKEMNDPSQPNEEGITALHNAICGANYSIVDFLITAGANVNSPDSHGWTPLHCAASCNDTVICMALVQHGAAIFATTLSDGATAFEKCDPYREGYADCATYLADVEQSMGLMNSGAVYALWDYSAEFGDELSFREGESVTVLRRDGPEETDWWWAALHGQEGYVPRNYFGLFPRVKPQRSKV

[6] = target: T3, iASPP CTD N813A Y814A double mutant (UniProt Q8WUF5 625-828, N813A | Y814A); assay: as above; details: both partners purified
T3 construct: iASPP C-terminal domain with N813A and Y814A; limits as for the iASPP CTD (amino acids 625-828, printed for the crystallised fusion); also called iASPP NY; N813A Y814A iASPP double mutant; source: E. coli BL21(DE3) Rosetta, purified (IMAC, TEV cleavage, reverse IMAC, ion exchange, SEC); not shown: His10, N-terminal, cleaved
T3 sequence (looked up): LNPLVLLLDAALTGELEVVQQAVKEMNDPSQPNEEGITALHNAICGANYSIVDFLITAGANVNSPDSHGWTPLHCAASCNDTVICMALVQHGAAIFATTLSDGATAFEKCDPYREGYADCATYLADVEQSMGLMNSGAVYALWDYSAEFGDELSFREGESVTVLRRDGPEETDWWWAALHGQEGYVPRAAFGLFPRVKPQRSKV

iASPP CTD [7] = target: T4, iASPP CTD (UniProt Q8WUF5 625-828); assay: ITC
T4 chain: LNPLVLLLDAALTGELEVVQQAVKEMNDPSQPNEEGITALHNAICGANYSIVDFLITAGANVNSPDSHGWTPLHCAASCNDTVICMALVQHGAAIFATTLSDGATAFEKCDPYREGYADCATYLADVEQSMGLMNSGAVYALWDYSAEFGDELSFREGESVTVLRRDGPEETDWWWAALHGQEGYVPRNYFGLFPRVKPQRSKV

[8] = target: T2, iASPP C-terminal domain (CTD); assay: ITC; peptide titrated to the CTD or SH3 domain; VP-ITC; 25 mM HEPES pH 7.5, 150 mM NaCl, 500 µM TCEP; single-site binding model (AB hetero association); details: both partners purified; remark: listed apart in the source
iASPP CTD [9] = target: T5, iASPP CTD (UniProt Q8WUF5 625-828); assay: not stated; affinities of peptides for iASPP CTD shown in Supplementary Fig. S5B, C, E; the text does not name the method; details: both partners purified
T5 construct: iASPP, C-terminal domain (CTD: ankyrin repeats and SH3 domain), amino acids 625-828; In the crystal structure this stretch stood fused behind the p63 peptide; also called iASPP CTD (amino acids 625-828); 15N-labelled iASPP CTD; source: E. coli BL21(DE3) Rosetta, purified (IMAC, TEV cleavage, reverse IMAC, ion exchange, SEC); for NMR grown in M9 minimal medium (15N or 15N,13C labelled); not …
T5 sequence (looked up): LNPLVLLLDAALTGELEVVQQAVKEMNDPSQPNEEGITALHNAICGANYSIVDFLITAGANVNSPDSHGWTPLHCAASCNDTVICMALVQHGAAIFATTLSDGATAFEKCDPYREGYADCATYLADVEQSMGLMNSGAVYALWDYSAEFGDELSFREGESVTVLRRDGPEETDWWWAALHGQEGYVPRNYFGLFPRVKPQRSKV

- fold reduction of the affinity against wild-type iASPP CTD [1]: 2 fold
Molecule: p63 linker peptide

Molecule: iASPP
- Kd (iASPP SH3 (Homo sapiens)): 45 µM

- Kd [2]: 94.3 µM
Molecule: p63 linker acK336 peptide

- Kd [2]: 1.65 µM
Molecule: optimized p63 linker peptide (p63opt, 331-344)

- Kd [2]: 132 µM
Molecule: p63 linker pT335 peptide

Molecule: p21 promoter RE 20 bp
- Kd (p63 DBD-TD WT): 0.115 µM

- Kd (ASPP2 CTD): 13.6 µM
B1: p63 DBD (domain or fragment)
chain: SPAIPSNTDYPGPHSFDVSFQQSSTAKSATWTYSTELKKLYCQIAKTCPIQIKVMTPPPQGAVIRAMPVYKKAEHVTEVVKRCPNHELSREFNEGQIAPPSHLIRVEGNSHAQYVEDPITGRQSVLVPYEPPQVGTEFTTVLYNFMCNSSCVGGMNRRPILIIVTLETRDGQVLGRRCFEARICACPGRDRKADEDSIRKQ
modifications: one Zn2+ bound; start from the paper's DBD constructs (123 + 39 = 162), end from the DNA_BIND feature (362 = paper 323)

- Kd (iASPP CTD [3]): 90 µM
- Kd (ASPP2 CTD): 288 µM
- Kd (iASPP CTD [4]): 64 to 105 µM
Molecule: GDGTKRPFRQN [p63 linker peptide]

- Kd [5]: 148 µM and 70.1 µM
- Kd [6]: 186 µM
B2: p63 linker peptide (331-344) (peptide)
peptide: NGDGTKRPFRQNTH
notes: p63 linker region between DBD and OD, residues 331-344; also called p63 peptide (331-344); p63 linker WT

- Kd (ASPP2 CTD): 172 µM
- Kd (iASPP CTD [7]): 135 µM
Molecule: PPGSTKRALPNNTS (limits not given; taken as the region aligned to p63 331-344)

- Kd (ASPP2 CTD): 92.9 µM
- Kd (iASPP CTD [7]): 33.8 µM
B3: p73 linker peptide (peptide)
chain: NGAASKRAFKQSPP
modifications: limits not given; taken as the region aligned to p63 331-344 (p63 K336 = p73 K327)

- Kd [8]: 0.186 µM
Molecule: NPGGRPITPPRNSA (peptide, UniProt P62136 313-326, looked up, also called PP1α (313-326)) [PP1α peptide (amino acids 313-326)]

- Kd [5]: 55.2 µM
B4: p53 linker peptide (peptide)
chain: PPGSTKRALPNNTS
modifications: limits not given; taken as the region aligned to p63 linker peptide 331-344 (p53 R248 = p63 R279, K305 = K336)

- Kd (iASPP CTD [9]): 1.7 µM
Molecule: GDGPKRPFRQN
